Article PMC8266564

Target: T1, GFP-dRNH1 (catalytically inactive RNase H1) (Homo sapiens, UniProt O60930 28-286, D210N)
T1 sequence: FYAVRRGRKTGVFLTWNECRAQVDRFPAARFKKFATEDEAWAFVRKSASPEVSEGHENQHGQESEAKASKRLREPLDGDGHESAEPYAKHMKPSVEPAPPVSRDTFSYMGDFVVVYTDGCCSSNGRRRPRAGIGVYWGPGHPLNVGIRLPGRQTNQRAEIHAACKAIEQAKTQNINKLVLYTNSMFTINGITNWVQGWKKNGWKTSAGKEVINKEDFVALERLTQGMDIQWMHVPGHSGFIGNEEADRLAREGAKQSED
Test: EMSA

B1: 60-bp RNA-DNA hybrid (RNA60/DNA60) (DNA:RNA)
RNA: GUUGUAACGACGGCCAGUGCCAAGUUCGGAUCGACGCUCGACUCUAGAGGAUCCCGGUAC
DNA: GTACCGGGATCCTCTAGAGTCGAGCGTCGATCCGAACTTGGCACTGGCCGTCGTTACAAC
**Q.** Does B1 bind?
**A.** binds
